In patent publication US20140370037A1 (published 2014):

T1: human DLL3 antigen (human, UniProt Q9NYJ7 27-492, limits assumed)
T1 construct: also called immobilized human DLL3; recombinant human DLL3
T1 sequence (looked up): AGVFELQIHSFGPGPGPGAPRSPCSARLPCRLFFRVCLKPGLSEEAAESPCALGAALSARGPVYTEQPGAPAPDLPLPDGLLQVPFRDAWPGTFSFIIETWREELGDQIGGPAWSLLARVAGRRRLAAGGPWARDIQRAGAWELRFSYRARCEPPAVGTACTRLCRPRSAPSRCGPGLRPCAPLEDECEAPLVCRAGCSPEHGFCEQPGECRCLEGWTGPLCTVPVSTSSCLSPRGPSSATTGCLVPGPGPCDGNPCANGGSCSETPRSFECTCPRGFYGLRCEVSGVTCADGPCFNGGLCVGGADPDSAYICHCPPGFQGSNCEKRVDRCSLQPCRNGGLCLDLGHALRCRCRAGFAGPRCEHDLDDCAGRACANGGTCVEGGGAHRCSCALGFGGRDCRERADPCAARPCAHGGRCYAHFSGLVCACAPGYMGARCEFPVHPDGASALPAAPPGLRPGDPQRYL


Target: T1, human DLL3 antigen
Assay: ELISA or flow cytometry screen

binding result	Binder
binds	SC16.52 (antibody, V domains shown, murine mAb) VH: QVQLKESGPGLVAPSQSLSITCAVSGFSLTSFAIHWFRKPPGKGLEWLGVIWTGGTTNYNSALMSRLSISKDNSKSQVFLKMNSLQTDDTAMYYCARDDYDNNYAMDYWGQGTSVTVSS VL: DIQMIQSPSSMFASLGDRVSLSCRASQGIRGTLDWYQQKPNGTIKLLIYSTSNLNSGVPSRFSGSGSGSDYSLTISSLESEDFADYYCLQRNAYPLTFGAGTKLELK
binds	SC16.34 (antibody, V domains shown, murine mAb) VH: QIQLVQSGPELKRPGETVKISCKASGYTFTNYGMNWVKQAPGKGLKWMGWINTYTGDPTYADDFKGRFAFSLETSASTAYLQINNLKNEDTATYFCARIGGNSPSDYWGQGTSLTVSS VL: SIVMTQTPKFLLVSAGDRVTITCKASQSVSNDVAWYQQKPGQSPKLLIYYASNRYSGVPDRFTGSGYGTDFTFTISTVQAEDLAVYFCQQDYSSPWTFGGGTKLEIK
binds	SC16.56 (antibody, V domains shown, murine mAb; also called anti-human/mouse DLL3 (SC16.56)) VH: QIQLVQSGPELKKPGETVKISCKASGYTFTNYGMNWVKQAPGKGLKWMAWINTYTGEPTYADDFKGRFAFSLETSASTASLQIINLKNEDTATYFCARIGDSSPSDYWGQGTTLTVSS VL: SIVMTQTPKFLLVSAGDRVTITCKASQSVSNDVVWYQQKPGQSPKLLIYYASNRYTGVPDRFAGSGYGTDFSFTISTVQAEDLAVYFCQQDYTSPWTFGGGTKLEIR
binds	SC16.55 (antibody, V domains shown, murine mAb) VH: EVQLVESGGGLVQPKGSLKLSCAVSAFTFTTYAMNWVRQAPGKGLEWVARIRNKSNNYATYYADSVKDRFTISRDDSQSMLYLQMNNLKIEDTAMYYCVFYYDYVYWGQGTLVTVSA VL: DIKMTQSPSSMYASLGERVTITCKASQDINSYLNWFQQKPGKSPKTLIYRANRLVDGVPSRFSGSGSGQDYSLTISSLEYEDMGIYYCLQYDEFPYTFGGGTKLEIKR
binds	SC16.62 (antibody, V domains shown, murine mAb) VH: EVMLVESGGDLVKPGGSLKLSCAASGFTFSSYAMSWVRQTPEKRLEWVAYISGGGDHIYYPDSVRGRFTISRDNAKDTLYLQMSSLRSEDTALYDCARVRDWYFDVWGAGTTVTVSS VL: DIKMTQSPSSMYASLGERVTITCKASQDINSFLSWFQRKPGKSPKTLIYRANRLVDGVPSRFTGSGSGQEFSLTISSLEYEDLGIYYCLQYDEFPYTFGGGTKLEIKR
binds	SC16.36 (antibody, V domains shown, murine mAb) VH: QVQLQQSGAELAKPGASVKMSCKASGYTFTTYWMHWVKQRPGQGLEWIGYINPSSGYTEYNQKFKDKATLTADKSSSTAYMQLSSLTSEDSSVYYCARKGSNRGFAYWGQGTLVTVS VL: ETTVTQSPASLSVTTGEKVTIRCITTPDIDDDMNWYQQKPGEPPNLLISEGNSLRPGVPSRFSSSGYGTNFVFTIENTLSEDVADYYCLQSDNMPFTFGSGTKLEIK
binds	SC16.30 (antibody, V domains shown, murine mAb) VH: QVTLKESGPGILQPSQTLSLTCSFSGFSLSTSGMGVGWIRQPSGKGLEWLAHIWWDDVKRYKPALKSRLTVSKDTSSNQVFLKIATVDAADTGTYYCARIVDGHPPFAYWGQGTLVTVSA VL: QIVLTQSPTIMSASLGERVTMTCTASSSVTSSYLHWYQQKPGSSPKLWIYSTSNLASGVPARFSGSGSGTSYSLTISSMEAEDAATYYCHQFHRSPFTFGSGTKLEIK
binds	SC16.42 (antibody, V domains shown, murine mAb) VH: QIQLVQSGPELKKPGETVKISCKASGYTFTTAGMQWVQKMPGKGFKWIGWINTHSGEPKYADDFKGRFAFSLETSASTAYLQISNLKDEDTATFFCAPLWSDSSFAYWGQGTLVTVSA VL: DVLMTQSPLSLSVSLGDQASISCRSSQNIVHSDRYTYLEWYLQKPGQSPKLLIYGVSNRFSGVPDRFSGSGSGTDFTLKISRVEAEDMGVYYCFQGTHVPYTFGGGTKLEIK
binds	SC16.61 (antibody, V domains shown, murine mAb) VH: EVLLQRSGPDLVKPGASVTIPCKASGYTFTDYNMDWVKQSHGKSLEWIGNINTYNGGTIYNQKFKGKATLTVDKPSSTAYMELRSLTSEDTAVYYCARRLRYGGHYFDYWGQGTALTVSS VL: DIVMTQSTSSLAMSVGQKVTMSCKSSQSLLNSSNQKNYLAWYQQEPGQSPKLLVSFASTRESGVPDRFTGSGSGTDFTLTISGVQAEDLAVYYCQQHYSIPLTFGAGTKLELK
binds	SC16.4 (antibody, V domains shown, murine mAb; also called mAb SC16.4) VH: QIQLVQSGPELKKPGETVKISCKASGYTFTDYSMHWVKQAPGKGLKWMGWINTETGEPGYADDFKGRFAFSLETSASTAYLQINNLKNEDTATYFCARYDGYAMDYWGQGTSVTVSS VL: DIQMTQTTSSLSASLGDRVTISCRASQDISNYLNWYQQKPDGTVKLLIYYTSRLHSGVPSRFSGSGSGTDYSLTISNLELEDIATYFCQQGDMLPWTFGGGTKLEIK
binds	SC16.35 (antibody, V domains shown, murine mAb) VH: DVQLQESGPGLVKPSQSLSLTCTVTGYSITSDYAWNWIRQFPGNKLEWMGYISYSGSTSYNPSLKSRISITRDTSKNQFFLQLNSVTTEDTATYYCARFYYGSSYAMDYWGQGTSVTVSS VL: DIQMTQTTSSLSASLGDRVTISCRASQDISNYLNWYQQKPDGTVKLLIYYTSRLHSGVPSRFSGSGSGTDYSLTISNLEQEDIATYFCQQGNTLPYTFGGGTKLEIK
binds	SC16.49 (antibody, V domains shown, murine mAb) VH: QVQLQQSGPELVKPGTLVKISCKASGYTFTSYDINWVKQRPGQGLEWIGWIYPGDGNTKYSEKFKGKATLTADKSSSTAYMQLTSLTSENSAVYFCARDYDYPFAYWGQGTLVTVSA VL: DIKMTQSPSSMYASLGERVTITCKASQDINSYLSWFQQKPGKSPKTLIYRANRLVDGVPSRFSGSGSGQDYSLTITSLEYEDMGIYYCLQYDEFPLTFGAGTKLELK
binds	SC16.25 (antibody, V domains shown, murine mAb) VH: QVTLKESGPGILQPSQTLSLTCSFSGFSLSTSGMGVGWIRQPSGEGLEWLTDIWWDDNKYYNPSLKSRLTISKDTSSNQVFLNITSVDTADTATYYCARRVNYYYDPYYAMDYWGQGTSVTVSS VL: QIVLTQSPAIMSASPGEKVTMTCSASSSVSYMHWYQQKSGTSPKRWIYDSSKLASGVPARFSGSGSGTSYSLTISSMEAEDAATYYCQQWSSNPLTFGAGTKLELK
binds	SC16.63 (antibody, V domains shown, murine mAb) VH: QVQLQQSGTELLRPGASVKISCKATGYTFSSYWMEWVKQRPGHGLEWIGEILPGSGTTQYNEKFKGKATFTADTSSNTAYMHLSSLTSEDSAVYYCARGTNSLWGQGTLVTVSA VL: QIVLTQSPAIMSASPGEKVTMTCSASSSVSYMYWYQQKSGTSPKRWIYDTSKLASGVPARFSGSGSGTSYSLTISSMEAEDAATYYCQQWSSNPYTFGGGTKLEIK
binds	SC16.38 (antibody, V domains shown, murine mAb) VH: EVQLQQSGAELVKPGASVKLSCTVSGFNIKDTYIHWVKQRPEQGLEWIGRIDPANGNTKYDPKFQGKATITADTSSNTAYLQLSSLTSEDTAVYYCARPTGYFEYWGQGTTLTVSS VL: QIVLTQSPAIMSASPGEKVTMTCSASSSINYMHWYQQKPGTSPKRWIYDTSKLASGVPARFSGSGSGTSYSLTISSMEAEDAATYYCHQRSTWTFGGGTKLEIK
binds	SC16.29 (antibody, V domains shown, murine mAb) VH: QVQLQQSGAELARPGASVKLSCKASGYTFTDQYINWVKQRTGQGLEWIGEIYPGRGNTYYNEKFKGKATLTADKSSSTAYMQLSSLTSEDSAVYFCAREDGGYDDAWFAYWGQGTLVTVSA VL: QIVLTQSPAIMSASPGEKVTITCSASSSVSYMHWFQQKPGTSPKLWIYTTSNLASGVPARFSGSGSGTSYSLTVSRMEAEDAATYYCQQRSLYPYTFGGGTKVEIK
binds	SC16.45 (antibody, V domains shown, murine mAb) VH: QVQLQQSGADLVRPGTSVKVSCKASGYSFTNYLIEWVKQRPGQGLEWIGVINPGSGGTHYNEKFKDKAVLTADKSSTTAHMQLSSLTSDDSAVYFCARSPYDYNDGAMDYWGQGTSVTVSS VL: EIQMTQSPSSMSASLGDRITITCQATQDIVKNLNWYQQKPGKPPSFLIYYATELAEGVPARFSGSGSGSDYSLTISNLESEDFADYHCLQFYEFPFTFGAGTKLELK
binds	SC16.47 (antibody, V domains shown, murine mAb) VH: EVQLQQSGPELVKPGASVKISCKASGYSFSRFYMHWVKQSPENSLEWIGEINPSTGGTSYNQKFKGKATLTVDKSSSTAYMQLKSLTSEESAVYYCTRGYGSNCYFDVWGAGTTVTVST VL: DVVLTQSPLSLPVNIGDQASISCKSTKSLLNSDGFTYLDWYLQRPGQSPQFLIYLVSNRFSGVPDRFSGSGSGTDFTLKISRVEAEDLGVYYCFQSNYLPLTFGAGTKLELR
binds	SC16.26 (antibody, V domains shown, murine mAb) VH: QIQLVQSGPELKKPGETVKISCKASGYSFTDYSMHWVKQAPGKGLKWMGWINTETVEPTYADDFMGRFAFSLETSASTAFLQINNLENEDTATYFCARFGSYAMDYWGQGTS VL: not shown
binds	SC16.58 (antibody, V domains shown, murine mAb) VH: DVQLVESGGGLVQPGGSRKLSCAASGFTFSSFGMHWVRQAPEKGLEWVAYISSGSSNIYYADTVKGRFTISRDNPKNTLFLQMTSLRSEDTAMYYCARGYYGNYDAMDYWGQGTSVTVSS VL: DIQMTQSPASLSSSVGETVTITCRASENIYSYLAWYQQKQGKSPQLLVYNAKTLAEGVPSRFSGSGSGTQFSLKINSLQPEDFGTYYCQHHYDSPLTFGAGTKLELR
binds	SC16.57 (antibody, V domains shown, murine mAb) VH: EVKLVESGGDLVKPGGSLKLSCAASGFAFSSYDMSWVRQTPEKRLEWVATISSGGSYTYYPDSVKGRFTISRDNVRDTLYLQMSSLRSEDTALYYCARQAIGTYFDYWGQGTTLTVSS VL: DIVMTQSHKFMSISVGDRVSITCKASQDVSIFVAWYQQKPGQSPKLLIYSASYRYTGVPDRFTGSGSGTDFIFTISSVQAEDLAVYYCQQHYGTPFTFGSGTKLKIR
